Results from the supplement of paper PMC10567573.

B1: SNX8 (parent)
chain: VVLKLFLSFSGSDVQNKLKESAQC

Variants of: B1
Experiment: protein stability index of a GFP-peptide fusion (GPS, HEK-293T) (PSI 1-6); higher = more stable
Conditions: c terminus: a fixed tail appended
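Note: lentivirally expressed fusions sorted by FACS into six bins by GFP to DsRed ratio, PSI derived from sequencing read proportions per bin multiplied by bin number.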

Variant	protein stability index
RVLKLFLSFSGSDVQNKLKESAQC [V1R]	2.71
PVLKLFLSFSGSDVQNKLKESAQC [V1P]	1.85
VVLKLFLSFLGSDVQNKLKESAQC [S10L]	2.45
VVLKLFLSFQGSDVQNKLKESAQC [S10Q]	2.18
VVLKLFLSFMGSDVQNKLKESAQC [S10M]	1.38
VVLKLFLSFRGSDVQNKLKESAQC [S10R]	2.08
VVLKLFLSFTGSDVQNKLKESAQC [S10T]	4.41
VVLKLFLSFVGSDVQNKLKESAQC [S10V]	3.99
VVLKLFLSFWGSDVQNKLKESAQC [S10W]	3.92
VVLKLFLSFAGSDVQNKLKESAQC [S10A]	1.79
VVLKLFLSFYGSDVQNKLKESAQC [S10Y]	2.26
VVLKLFLSFKGSDVQNKLKESAQC [S10K]	2.22
VVLKLFLSFPGSDVQNKLKESAQC [S10P]	1.78
VVLKLFLSFDGSDVQNKLKESAQC [S10D]	2.68
VVLKLFLSFNGSDVQNKLKESAQC [S10N]	2.75
VVKKLFLSFSGSDVQNKLKESAQC [L3K]	2.5
VVTKLFLSFSGSDVQNKLKESAQC [L3T]	1.2
VVYKLFLSFSGSDVQNKLKESAQC [L3Y]	1.94
VVQKLFLSFSGSDVQNKLKESAQC [L3Q]	2.61
VVAKLFLSFSGSDVQNKLKESAQC [L3A]	2.34
VVNKLFLSFSGSDVQNKLKESAQC [L3N]	2.21
VVFKLFLSFSGSDVQNKLKESAQC [L3F]	3.59
VVHKLFLSFSGSDVQNKLKESAQC [L3H]	3.17
VVEKLFLSFSGSDVQNKLKESAQC [L3E]	1.57

Variant	protein stability index
VVGKLFLSFSGSDVQNKLKESAQC [L3G]	1.78
VVVKLFLSFSGSDVQNKLKESAQC [L3V]	3.77
VVDKLFLSFSGSDVQNKLKESAQC [L3D]	2.44
VVPKLFLSFSGSDVQNKLKESAQC [L3P]	2.87
VVCKLFLSFSGSDVQNKLKESAQC [L3C]	2.4
VVSKLFLSFSGSDVQNKLKESAQC [L3S]	1.66
VVLKLFKSFSGSDVQNKLKESAQC [L7K]	1.84
VVLKLFDSFSGSDVQNKLKESAQC [L7D]	1.73
VVLKLFNSFSGSDVQNKLKESAQC [L7N]	1.09
VVLKLFFSFSGSDVQNKLKESAQC [L7F]	2.35
VVLKLFHSFSGSDVQNKLKESAQC [L7H]	3.04
VVLKLFESFSGSDVQNKLKESAQC [L7E]	2.56
VVLKLFVSFSGSDVQNKLKESAQC [L7V]	3.66
VVLKLFQSFSGSDVQNKLKESAQC [L7Q]	1.63
VVLKLFPSFSGSDVQNKLKESAQC [L7P]	2.34
VVLKLFGSFSGSDVQNKLKESAQC [L7G]	1.43
VYLKLFLSFSGSDVQNKLKESAQC [V2Y]	2.24
VPLKLFLSFSGSDVQNKLKESAQC [V2P]	2.19
VELKLFLSFSGSDVQNKLKESAQC [V2E]	1.39
VSLKLFLSFSGSDVQNKLKESAQC [V2S]	2.79
VCLKLFLSFSGSDVQNKLKESAQC [V2C]	3.14
VKLKLFLSFSGSDVQNKLKESAQC [V2K]	3.26
VLLKLFLSFSGSDVQNKLKESAQC [V2L]	2.09
VALKLFLSFSGSDVQNKLKESAQC [V2A]	3.41

Variant	protein stability index
VWLKLFLSFSGSDVQNKLKESAQC [V2W]	3.59
VNLKLFLSFSGSDVQNKLKESAQC [V2N]	1.11
VMLKLFLSFSGSDVQNKLKESAQC [V2M]	2.57
VDLKLFLSFSGSDVQNKLKESAQC [V2D]	1.4
VVLKLFLSWSGSDVQNKLKESAQC [F9W]	2.48
VVLKLFLSVSGSDVQNKLKESAQC [F9V]	3.52
VVLKLFLSKSGSDVQNKLKESAQC [F9K]	1.72
VVLKLFLSPSGSDVQNKLKESAQC [F9P]	2.64
VVLKLFLSHSGSDVQNKLKESAQC [F9H]	3.85
VVLKLFLSTSGSDVQNKLKESAQC [F9T]	2.41
VVLKLFLSISGSDVQNKLKESAQC [F9I]	3.38
VVLKLFLSASGSDVQNKLKESAQC [F9A]	3
VVLKLFLSESGSDVQNKLKESAQC [F9E]	1.11
VVLKLFLSNSGSDVQNKLKESAQC [F9N]	1.66
VVLKLFLSYSGSDVQNKLKESAQC [F9Y]	3.17
VVLKLFLSQSGSDVQNKLKESAQC [F9Q]	4.89
VVLKLFLSRSGSDVQNKLKESAQC [F9R]	2.42
VVLKEFLSFSGSDVQNKLKESAQC [L5E]	1.79
VVLKDFLSFSGSDVQNKLKESAQC [L5D]	2.41
VVLKSFLSFSGSDVQNKLKESAQC [L5S]	1.1
VVLKRFLSFSGSDVQNKLKESAQC [L5R]	1.92
VVLKIFLSFSGSDVQNKLKESAQC [L5I]	2.62
VVLKQFLSFSGSDVQNKLKESAQC [L5Q]	2.61
VVLKFFLSFSGSDVQNKLKESAQC [L5F]	3.22

Variant	protein stability index
VVLKHFLSFSGSDVQNKLKESAQC [L5H]	2.57
VVLKKFLSFSGSDVQNKLKESAQC [L5K]	2.59
VVLKCFLSFSGSDVQNKLKESAQC [L5C]	2.91
VVLKAFLSFSGSDVQNKLKESAQC [L5A]	2.93
VVLKPFLSFSGSDVQNKLKESAQC [L5P]	1.83
VVLKGFLSFSGSDVQNKLKESAQC [L5G]	1.55
VVLKYFLSFSGSDVQNKLKESAQC [L5Y]	1.69
VVLKLKLSFSGSDVQNKLKESAQC [F6K]	3.48
VVLKLELSFSGSDVQNKLKESAQC [F6E]	1.31
VVLKLNLSFSGSDVQNKLKESAQC [F6N]	3.24
VVLKLMLSFSGSDVQNKLKESAQC [F6M]	2.48
VVLKLDLSFSGSDVQNKLKESAQC [F6D]	1.17
VVLKLSLSFSGSDVQNKLKESAQC [F6S]	3.13
VVLKLILSFSGSDVQNKLKESAQC [F6I]	2.18
VVLKLPLSFSGSDVQNKLKESAQC [F6P]	2.29
VVLPLFLSFSGSDVQNKLKESAQC [K4P]	3.99
VVLELFLSFSGSDVQNKLKESAQC [K4E]	4.58
VVLFLFLSFSGSDVQNKLKESAQC [K4F]	2.27
VVLHLFLSFSGSDVQNKLKESAQC [K4H]	2.6
VVLSLFLSFSGSDVQNKLKESAQC [K4S]	2.38
VVLQLFLSFSGSDVQNKLKESAQC [K4Q]	2.43
VVLNLFLSFSGSDVQNKLKESAQC [K4N]	2.76
